# T1: recombinant rat RGM A (rat)
# T1 construct: also called rRatRGMA
# T1 chain: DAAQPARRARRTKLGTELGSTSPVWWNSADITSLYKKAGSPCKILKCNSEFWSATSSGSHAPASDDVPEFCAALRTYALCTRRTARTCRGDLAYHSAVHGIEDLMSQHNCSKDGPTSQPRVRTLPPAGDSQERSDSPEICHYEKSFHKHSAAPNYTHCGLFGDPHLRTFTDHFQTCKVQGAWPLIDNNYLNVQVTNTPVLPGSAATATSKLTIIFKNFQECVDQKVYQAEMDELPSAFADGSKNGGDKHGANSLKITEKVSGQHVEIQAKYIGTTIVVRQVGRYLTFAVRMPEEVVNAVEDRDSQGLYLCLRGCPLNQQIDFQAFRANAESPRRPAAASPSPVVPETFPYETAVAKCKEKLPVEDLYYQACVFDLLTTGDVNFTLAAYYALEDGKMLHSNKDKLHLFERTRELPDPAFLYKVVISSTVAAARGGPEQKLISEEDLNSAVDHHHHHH
# T2: rat RGM A overexpressed on cells (BAF3 cells) (rat)
# T2 construct: also called BAF3 cells overexpressing ratRGM A
# T2 chain: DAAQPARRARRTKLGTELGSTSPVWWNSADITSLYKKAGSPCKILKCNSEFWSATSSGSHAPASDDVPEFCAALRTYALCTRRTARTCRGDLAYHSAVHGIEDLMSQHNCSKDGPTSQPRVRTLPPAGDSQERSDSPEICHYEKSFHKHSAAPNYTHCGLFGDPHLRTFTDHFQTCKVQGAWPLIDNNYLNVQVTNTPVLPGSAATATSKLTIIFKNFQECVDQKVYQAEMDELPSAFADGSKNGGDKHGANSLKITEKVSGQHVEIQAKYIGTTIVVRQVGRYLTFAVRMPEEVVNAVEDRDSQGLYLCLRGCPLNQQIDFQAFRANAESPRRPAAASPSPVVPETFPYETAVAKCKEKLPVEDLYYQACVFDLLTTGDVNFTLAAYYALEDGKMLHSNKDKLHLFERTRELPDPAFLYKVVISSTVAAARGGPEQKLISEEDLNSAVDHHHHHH
# T3: recombinant purified human RGM A (human, UniProt Q96B86 48-424, limits assumed)
# T3 construct: Bought recombinant protein (R&D Systems); also called hRGM A; hRGMA
# T3 sequence: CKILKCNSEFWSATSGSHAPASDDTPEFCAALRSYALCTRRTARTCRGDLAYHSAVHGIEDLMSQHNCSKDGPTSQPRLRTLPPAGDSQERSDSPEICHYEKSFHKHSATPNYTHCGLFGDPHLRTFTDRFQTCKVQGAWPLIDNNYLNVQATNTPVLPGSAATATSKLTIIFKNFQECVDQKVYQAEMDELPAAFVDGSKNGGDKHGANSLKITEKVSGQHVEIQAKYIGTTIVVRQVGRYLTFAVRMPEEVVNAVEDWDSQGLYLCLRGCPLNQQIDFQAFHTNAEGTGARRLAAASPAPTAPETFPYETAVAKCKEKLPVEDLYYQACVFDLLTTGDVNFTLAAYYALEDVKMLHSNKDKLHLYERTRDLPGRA
# Columns and labels:
# recombinant rat RGM A = target: T1, recombinant rat RGM A; experiment: direct ELISA on rRatRGMA
# [1] = target: T4, fc-coupled human RGM A light chain, fragment 0 (47-168) (human); experiment: direct ELISA on hRGMA 47-168/HuIgGFc
# T4 construct: also called hRGM A light chain - fc; hRGMA 47-168/HuIgGFc
# T4 sequence (chain, as listed by the source): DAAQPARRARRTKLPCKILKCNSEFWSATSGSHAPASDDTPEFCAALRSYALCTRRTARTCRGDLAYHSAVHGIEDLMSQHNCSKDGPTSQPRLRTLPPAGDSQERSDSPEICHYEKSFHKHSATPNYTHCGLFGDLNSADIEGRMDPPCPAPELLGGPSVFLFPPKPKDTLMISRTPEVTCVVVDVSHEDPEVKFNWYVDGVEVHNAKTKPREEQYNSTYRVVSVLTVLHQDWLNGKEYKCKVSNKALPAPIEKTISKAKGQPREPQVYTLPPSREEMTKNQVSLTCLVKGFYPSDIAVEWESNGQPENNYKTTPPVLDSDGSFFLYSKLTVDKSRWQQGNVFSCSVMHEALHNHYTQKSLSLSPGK
# [2] = target: T5, fc-coupled full length human RGM A (47-422) (human); experiment: competition ELISA: fc-conjugated full length hRGM A (0.5 µg/ml) binding to coated BMP-2
# T5 construct: the legends call the protein fc-coupled full length hRGM A fragment (47-422, counted on hRGM A); also called full length fc-conjugated hRGM A; Human RGM A-fc
# T5 sequence (chain, as listed by the source): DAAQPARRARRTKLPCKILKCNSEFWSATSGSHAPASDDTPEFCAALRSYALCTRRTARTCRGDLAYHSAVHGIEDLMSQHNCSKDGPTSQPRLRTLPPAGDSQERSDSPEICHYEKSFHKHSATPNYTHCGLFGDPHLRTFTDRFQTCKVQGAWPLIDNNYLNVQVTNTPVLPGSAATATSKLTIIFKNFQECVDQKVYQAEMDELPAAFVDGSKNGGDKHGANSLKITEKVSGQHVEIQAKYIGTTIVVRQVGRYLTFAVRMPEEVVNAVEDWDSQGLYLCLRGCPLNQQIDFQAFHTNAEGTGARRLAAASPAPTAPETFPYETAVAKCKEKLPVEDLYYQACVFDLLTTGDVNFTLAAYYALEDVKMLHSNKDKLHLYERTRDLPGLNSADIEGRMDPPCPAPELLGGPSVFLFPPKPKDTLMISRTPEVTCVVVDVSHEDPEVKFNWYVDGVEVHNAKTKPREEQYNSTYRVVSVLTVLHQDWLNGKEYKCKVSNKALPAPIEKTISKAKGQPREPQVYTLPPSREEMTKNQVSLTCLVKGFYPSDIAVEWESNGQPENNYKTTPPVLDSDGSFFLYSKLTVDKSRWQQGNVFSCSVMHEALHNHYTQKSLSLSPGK
# Description: After the incubation, unbound BMP-2 was removed in 3 separate wash steps with PBS containing 0.02% Tween 20. Blocking of the BMP-2 coated plates was done by adding 2001-JI per well of a 3% Bovine serum albumin (BSA), PBS, Tween 20(0.02%) blocking solution. After incubation for 1 h at 37° C., the blocking solution was removed and RGM A fragments or full length protein, conjugated with a human fc tag, with or without antibody, was added. In some experiments antibodies were preincubated with the fc-conjugated hRGM A proteins for 1 h at room temperature. The BMP-2 coated plates were incubated with hRGM A with or without antibodies for 1 hat 37° C. After 3 wash steps with PBS-Tween 20 (0.02%), plates were incubated with a Biotin-labeled anti-human fc antibody (1 mg/ml, diluted 1:200 in PBS containing 0.6% BSA, 0.02% Tween 20), Jackson ImmunoResearch catalog no: 709-065-149, for 1 h at 37° C. Unbound antibody was removed by 3 wash steps with PBS-Tween 20 (0.02%). […] Unbound Peroxidase-complex was removed in 3 subsequent wash steps (PBS-Tween 20 (0.02%) before adding the Peroxidase substrate (Immuno Pure TMB, Pierce#34021). The substrate reaction was stopped 1-30 min after its addition to the wells by 2.5 M H2SO4. Plates were analysed (OD determination) at a wave length of 450 nm using an Anthos photometer. […]
# [3] = target: T2, rat RGM A overexpressed on cells (BAF3 …); experiment: FACS on BAF3-ratRGMA stable cell line, anti-rat IgG PE
# Description: (ii) FACS analysis. Stable transfectants of HEK293 cells overexpressing hRGM A or BAF3 cells overexpressing ratRGM A were subjected to staining with unlabelled 5F9 or 8D1 MABs for more than 15 minutes at 4° in 0.1% BSNPBS buffer. Detection was carried out with a mouse anti-rat IgG PE antibody.
# (§1) FAGS was carried out as described in section (ii).
# [4] = target: T3, recombinant purified human RGM A; experiment: direct ELISA, plate coated with hRGM A at 2 µg/ml, biotinylated antibody in 1:5 dilution steps, streptavidin-HRP, OD 450 nm
# Description: (i) Direct binding ELISA plates were coated with hRGM A (R&D) at a concentration of 2 μg/ml in Carbonate buffer. The wells were then blocked with 2% Blocking solution (Bio-Rad) for 1 hour at room temperature. Biotinylated antibodies were serially diluted with a 1:5 dilution factor in 0.1% BSNPBS down the plate and incubated for 1 hour at room temperature. The detection reagent was a 1:10,000 dilution of streptavidin-HRP in 0.1% BSNPBS. Detection was done with a TMB reagent, which was stopped with 2N H₂SO₄ and OD was read at 450 nm.
# as §1
binder,measurement,setting,value
"rat anti-human RGM A monoclonal antibody 8D1 (antibody, V domains shown, Rat hybridoma antibody; also called ML68-8D1; MAB 8D1) VH: EVQLQQSGPELVKPGTSVKMSCKTSGYTFTSYVMHWVKQKPGQGLEWIGYIIPYNDNTKYNEKFKGKATLTSDKSSSTAYMELSSLTSEDSAVYYCARRNEYYGSSFFDYWGQGTTLTVSS VL: DIQMTQSPASLSASLEEIVTITCQASQDIDNYLAWYHQKPGKSPRLLIYGATNLADGVPSRFSGSRSGTQFSLKINRLQIEDLGIYYCLQGYIPPRTFGGGTKLELKR",binding result,recombinant rat RGM A,no binding
same,binding result,[1],binds
same,binding result,[2],binds
same,binding result,[3],no binding
same,EC50 (read off the curve),[4],~0.2 µg/mL

# From patent publication US20150183871A1 (AbbVie / Abbott, published 2015)
